# Experimental data from US20090265797A1 (PIERRE FABRE MEDICAMENT, published 2009).
# Assays:
# [1] = target: T1, human IGF-IR (hIGF-IR) from membrane lysate of NIH 3T3 cells stably transfected with the human IGF-IR cDNA, … (human, UniProt P08069 31-1367); test: competition of 100 pM [125I]-IGF1 binding to hIGF-IR captured by antibody 17-69 on Protein A FlashPlate; displacement of [^125I]-IGF1 (not [^125I]-IGF2) from immobilized hIGF-IR
# T1 construct: Whole receptor (alpha and beta subunits from one precursor) solubilised from membranes, not on cells; also called immobilized hIGF-IR; human IGF-1 receptor
# Experimental: (§1) Two hundred μl of a 20 μg/ml antibody solution in PBS were added to each well and incubated overnight at +4° C. The buffer containing residual 17-69 not attached to protein A was removed by aspiration. Two hundred μl of the membrane lysate at 100 μg/ml were further added and incubated for 2 h at room temperature to immobilize IGF-IR. Non captured proteins were removed by aspiration. […] The plates were incubated at room temperature for 2 h, then counted on a Packard Top Count Microplate Scintillation Counter.
# (§2) Concentrations of the various inhibitors required to inhibit the radioligand binding by 50% (IC₅₀) were determined graphically from the sigmoid competition curves obtained (FIGS. 1 and 2).
# [2] = target: T1, human IGF-IR (hIGF-IR) from membrane …; test: competition of 100 pM [125I]-IGF2 binding to hIGF-IR captured by antibody 17-69 on Protein A FlashPlate
# Experimental: as §1, §2
# [3] = target: T1, human IGF-IR (hIGF-IR) from membrane …; test: competition of 100 pM [125I]-IGF1 binding to immobilized hIGF-IR; reference: unlabeled IGF1
# Experimental: as §1, §2
# [4] = target: IGF-IR on MCF-7 or HT29 cells (human, UniProt P08069 31-1367); test: cell-based or functional assay
# [5] = target: soluble human insulin-like growth factor-1 receptor (hIGF-IR) extra-cellular domain (ECD) (human) (UniProt P08069); test: SPR, BIAcore T100, 25 °C; antibody captured by anti-human IgG Fc on CM5, hIGF-IR-ECD as analyte; KD = kd/ka
# [6] = target: soluble human insulin-like growth factor-1 receptor (hIGF-IR) extra-cellular domain (ECD) (human) (UniProt P08069); test: SPR, BIAcore T100, 25 °C; antibody captured by anti-human IgG Fc on CM5, hIGF-IR-ECD as analyte (6.25-100 nM)
# T1 sequence (P08069 31-1367 limits assumed): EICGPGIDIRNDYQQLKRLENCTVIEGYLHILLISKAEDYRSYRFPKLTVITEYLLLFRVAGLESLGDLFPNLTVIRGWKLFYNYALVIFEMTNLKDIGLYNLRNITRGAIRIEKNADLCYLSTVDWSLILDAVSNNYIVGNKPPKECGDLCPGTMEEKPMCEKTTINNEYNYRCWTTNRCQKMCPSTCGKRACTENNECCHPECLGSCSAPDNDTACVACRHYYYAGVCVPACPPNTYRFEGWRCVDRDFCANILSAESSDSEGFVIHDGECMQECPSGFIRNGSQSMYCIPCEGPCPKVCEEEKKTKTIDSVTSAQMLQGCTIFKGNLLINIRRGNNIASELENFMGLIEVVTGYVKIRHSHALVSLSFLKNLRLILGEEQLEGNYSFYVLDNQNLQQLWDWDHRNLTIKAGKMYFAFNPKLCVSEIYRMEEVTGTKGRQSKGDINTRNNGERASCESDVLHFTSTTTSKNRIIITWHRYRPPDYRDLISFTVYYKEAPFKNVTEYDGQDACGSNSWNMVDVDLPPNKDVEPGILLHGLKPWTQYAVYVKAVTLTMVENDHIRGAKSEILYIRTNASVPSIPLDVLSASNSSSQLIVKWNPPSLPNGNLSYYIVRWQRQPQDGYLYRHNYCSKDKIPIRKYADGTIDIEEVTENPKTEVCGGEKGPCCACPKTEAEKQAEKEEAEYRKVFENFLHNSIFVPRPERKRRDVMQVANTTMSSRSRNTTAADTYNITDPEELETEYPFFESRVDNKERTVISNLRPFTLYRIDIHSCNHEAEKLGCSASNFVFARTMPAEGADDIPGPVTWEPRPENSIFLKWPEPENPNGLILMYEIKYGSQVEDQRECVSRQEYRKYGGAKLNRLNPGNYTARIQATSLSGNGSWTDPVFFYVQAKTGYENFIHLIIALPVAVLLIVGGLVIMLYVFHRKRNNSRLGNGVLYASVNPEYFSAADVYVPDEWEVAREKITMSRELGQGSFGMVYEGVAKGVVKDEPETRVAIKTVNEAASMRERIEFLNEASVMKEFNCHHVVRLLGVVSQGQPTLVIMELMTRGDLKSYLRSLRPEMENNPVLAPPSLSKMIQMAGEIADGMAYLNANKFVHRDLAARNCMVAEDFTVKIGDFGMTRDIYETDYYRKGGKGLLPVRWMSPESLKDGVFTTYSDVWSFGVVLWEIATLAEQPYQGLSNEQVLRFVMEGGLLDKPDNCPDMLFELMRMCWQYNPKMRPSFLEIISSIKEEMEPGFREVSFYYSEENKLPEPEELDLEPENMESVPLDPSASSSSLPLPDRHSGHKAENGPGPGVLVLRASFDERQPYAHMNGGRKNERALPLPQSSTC
# Sequence of IGF-IR on MCF-7 or HT29 cells (P08069 31-1367): as the sequence (P08069 31-1367 limits assumed) above
Binder,IC50 [1],IC50 [2],fold lower IC50 than non radiolabeled IGF1 [3],IC50 of inhibition of IGF1-induced proliferation of MCF-7 cells [4],IC50 of inhibition of IGF2-induced proliferation of MCF-7 cells [4],Kd [5],koff [6],kon [6]
"murine monoclonal antibody I-3466 (antibody, V domains shown, a mouse IgG1 (9G4) served as its isotype control) VH: EVMLVESGGDLVKPGGSLKLSCAASGFTFNNYIMSWVRQTPEKRLEWVATISGGGSYTFYPDSVKGRFSISRDNAKNTLYLQMSSLRSEDTAMYFCTRNQLLTGMINPLTTPRAWFTYWGQGTLVTVSA VL: DIVMSQSPSSLAVSAGEKVTMNCKSSQSLLDSRTRKNYLAWYQQKPGQSPKLLIYWASTRESGVPDRFTGSGSGTDFTLTISSVQAEDLAVYYCKQSYNLFTFGGGTKLEIK",0.021 nM,~0.1 nM,30 fold,0.7 nM,0.5 nM,–,–,–
"Humanized I-3466 IgG1 antibody (antibody, V domains shown) VH: EVQLVESGGDLVQPGGSLRLSCAASGFTFNNYIMSWVRQAPGKGLEWVATISGGGSYTFYPDSVKGRFTISRDNSKNTLYLQMNSLRAEDTAVYFCTRNQLLTGMINPLTTPRAWFTYWGQGTLVTVSS VL: DIVMTQSPDSLAVSLGERATINCKSSQSLLDSRTRKNYLAWYQQKPGQPPKLLIYWASTRESGVPDRFSGSGSGTDFTLTISSLQAEDVAVYYCKQSYNLFTFGGGTKVEIK",–,–,–,–,–,0.342 nM,6.29e-05 s⁻¹,184000 M⁻¹ s⁻¹
